Key:
Format in all cases: in vivo
Settings in all cases: for The grade of pesticide damage/plant: number of plants of grade 0 / The grade of pesticide damage/plant: number of plants of grade 1 / The grade of pesticide damage/plant: number of plants of grade 2 / The grade of pesticide damage/plant: number of plants of grade 3: 7 DAT, 16 maize plants per genotype
[1] = test system: transgenic maize plants; assay: saflufenacil tolerance of transgenic maize plants (spray, grade of pesticide damage)
[2] = test system: transgenic maize plants; assay: oxyfluorfen tolerance of transgenic maize plants (spray, grade of pesticide damage)
[3] = test system: transgenic maize plants; assay: flumioxazin tolerance of transgenic maize plants (spray, grade of pesticide damage)
[4] = saflufenacil 50 g ai/ha (2x field concentration)
[5] = saflufenacil 100 g ai/ha (4x field concentration)
[6] = oxyfluorfen 360 g ai/ha (2x field concentration)
[7] = oxyfluorfen 720 g ai/ha (4x field concentration)
[8] = flumioxazin 120 g ai/ha (2x field concentration)
[9] = flumioxazin 240 g ai/ha (4x field concentration)

B1: PPO-APB: nucleotide sequence encoding Arsenophonus protoporphyrinogen oxidase PPO-AP (SEQ ID NO:65), maize common codon usage bias (nucleic acid)
DNA: ATGTCCTACCTCTTGCTGTATTCGGGGAAAAATGGTCAAACCAAGAAGATCATCCTCAAAATAACTGAATATCTTCGTAAAGAAGGAAAGCAGTGCGACGTCAGAGATCTTAACATGGACAAGAATTTTAATTTAAGTGTGTACCAGAAGGTTCTTGTCGGAGCTTCAATTCGCTACGGCCACTTCAACCCCGCCGTGCTGAACTTCGCGCAGAATCATCAAAAAGAGCTGAACACAATTCAATCTGCCTTCTTTGGCGTCAACCTGATGGCGAGGAAGCAAGGGAAGGATACACCAGAAACCAATGTTTATGTTCGGAAGTTTTTGGCTAAAATTCCATGGCAGCCGACGATCACCAACGTATTTAGCGGTGCACTCAGATATCCTCAGTACAAGTGGCTGGATAGGATAATGATCCAGTTCATCATGAAGATTACTGGCGGCGAGACAAATAAGAACAAGGAGGTGGAGTACACGGACTGGGAGAAAGTGGAATACTTCGCCCGCGAGTTCAATGCACTAAAATGA
modifications: The nucleotide sequence of PPO-APB
[1]; maize, saflufenacil at four-fold field concentration (100 g ai/ha)
  tolerance to saflufenacil: basically no tolerance
[1]; maize, saflufenacil at two-fold field concentration (50 g ai/ha)
  share of the plants that exhibited no tolerance: about 56
[1]; [4]
  The grade of pesticide damage/plant: number of plants of grade 0: 0
  The grade of pesticide damage/plant: number of plants of grade 1: 0
  The grade of pesticide damage/plant: number of plants of grade 2: 7
  The grade of pesticide damage/plant: number of plants of grade 3: 9
[1]; [5]
  The grade of pesticide damage/plant: number of plants of grade 0: 0
  The grade of pesticide damage/plant: number of plants of grade 1: 0
  The grade of pesticide damage/plant: number of plants of grade 2: 1
  The grade of pesticide damage/plant: number of plants of grade 3: 15
[2]; maize, oxyfluorfen at four-fold field concentration (720 g ai/ha)
  tolerance to oxyfluorfen: no tolerance
[2]; maize, oxyfluorfen at two-fold field concentration (360 g ai/ha)
  share of the plants that exhibited no tolerance: about 50%
[2]; [6]
  The grade of pesticide damage/plant: number of plants of grade 0: 0
  The grade of pesticide damage/plant: number of plants of grade 1: 0
  The grade of pesticide damage/plant: number of plants of grade 2: 8
  The grade of pesticide damage/plant: number of plants of grade 3: 8
[2]; [7]
  The grade of pesticide damage/plant: number of plants of grade 0: 0
  The grade of pesticide damage/plant: number of plants of grade 1: 0
  The grade of pesticide damage/plant: number of plants of grade 2: 0
  The grade of pesticide damage/plant: number of plants of grade 3: 16
[3]; [8]
  The grade of pesticide damage/plant: number of plants of grade 0: 0
  The grade of pesticide damage/plant: number of plants of grade 1: 0
  The grade of pesticide damage/plant: number of plants of grade 2: 3
  The grade of pesticide damage/plant: number of plants of grade 3: 13
[3]; [9]
  The grade of pesticide damage/plant: number of plants of grade 0: 0
  The grade of pesticide damage/plant: number of plants of grade 1: 0
  The grade of pesticide damage/plant: number of plants of grade 2: 0
  The grade of pesticide damage/plant: number of plants of grade 3: 16
[3]; maize, flumioxazin at different concentrations (120 and 240 g ai/ha)
  tolerance to flumioxazin: basically no tolerance

Reference: patent US20240200091A1, “USE OF PROTOPORPHYRINOGEN OXIDASE” (BEIJING DABEINONG BIOTECHNOLOGY CO., LTD., priority 2021, published 2024)
